Tests used:
[1] = target: DLnano_LS_GT8 (DNA‐launched lumazine synthase nanoparticle decorated with eOD‐GT8, produced in vivo) (Aquifex aeolicus); assay: native gel or EMSA; pseudo-native PAGE (3-8% Tris-acetate gel, LDS buffer at room temperature, no boiling) of mouse muscle homogenates 4 d.p.i., blotted with VRC01; SEC-purified recombinant standards alongside
[2] = target: LS_HA_NC99 (lumazine synthase nanoparticle displaying the receptor binding domain of the head of influenza hemagglutinin, H1N1 A/New Caledonia/20/1999) (Aquifex aeolicus | influenza A virus H1N1 A/New Caledonia/20/1999); assay: SEC + SEC-MALS + other: negative stain electron microscopy

How did the stoichiometry N [1] turn out when “DLnano_LS_GT8 (DNA‐launched lumazine synthase nanoparticle decorated with eOD‐GT8, produced in vivo)” was run?
Its stoichiometry N is 60.

With “LS_HA_NC99 (lumazine synthase nanoparticle displaying the receptor binding domain of the head of influenza hemagglutinin, H1N1 A/New Caledonia/20/1999)” as the substance, how does the stoichiometry N [2] read?
The stoichiometry N was 60.

— PMC7175333
